{"source": "patent US20220193270A1", "about": "“METHOD FOR ENHANCING TUMOR GROWTH” (MINERVA BIOTECHNOLOGIES CORPORATION, priority 2013, published 2022)", "key": {"[1]": {"tested_on": "human fibroblasts", "assay": "RT-PCR of stem/cancer markers and chromatin rearrangement factors in fibroblasts cultured with NME proteins", "assay_type": "cell-based", "conditions": "after 15-20 days in culture", "experimental": "Agents that are able to maintain stem cells in the naive state are also able to transform somatic cells to a cancer or stem-like state. Human NME1 dimer or human NME7 are able to make somatic cells revert to a less mature state, expressing stem and cancer cell markers. Bacterial NME from HSP 593 was tested alongside the human homologs to determine if it could mimic their function by being able to revert somatic cells to a cancer-like state. Human fibroblasts were cultured in a serum-free minimal base media with either HSP 593, human NME1 dimers or human NME7-AB as the only growth factor or cytokine. […] Recalling that stem cells and metastatic cancer cells can grow anchorage-independently, we repeated the experiments but this time a rho kinase inhibitor was added to one set of cells to make the cells adhere to the surface. […] Photos of the experiment show the dramatic change in morphology as the fibroblasts revert when cultured in human or bacterial NME, FIGS. 52-59. The relative order of efficiency of reverting somatic cells to a less mature state was NME7>NME1 dimers >NME1 bacterial. […] However, Bacterial NME from HSP 593 apparently up-regulates expression of human NME7 and NME1.\nExample 3d: In this example, fibroblast cells were cultured in the presence of recombinant human NME1/NM23 dimers, bacterial HSP593 NME1 dimers or NME7-AB. The fibroblasts were cultured in their normal media as a control, which is for 500 mL, 445 mL DMEM high glucose base media, 5 mL GlutaMAX and 50 mL of fetal bovine serum (FBS). After 15-20 days in culture with either NME1/NM23 dimers, bacterial HSP593 NME1 dimers or NME7-AB, the morphology of the cells completely changed so that they no longer were recognizable as fibroblasts. […] Here, ‘minus ROCi’ refers to cells that became non-adherent and floated off the surface."}, "[2]": {"tested_on": "T47D cancer stem cells", "assay": "Tumor initiation and metastasis from low numbers of NME7-AB-induced T47D cancer stem cells, with or without daily NME7-AB injections", "assay_type": "in vivo, nu/nu female mice", "experimental": "T47D breast cancer cells were cultured as described in Example 3a above. After 7-10 days culture in minimal media to which was added rhNME7-AB to a final concentration of 4 nM, floating cells were collected. […] The floating cells were counted and re-suspended in PBS. The NME7-induced cancer stem cells were mixed 1:2 with reduced growth factor Matrigel; that is 2 parts Matrigel to 1 part cells. A range of ratios of cancer cells to NME7 or the injection schedule of NME7 is expected to vary from one mouse strain to another and from one tumor type to another.\nThe cancer stem cells were implanted in the flank of female nu/nu mice which had previously been implanted with a 90-day release estrogen pellet in the shoulder area. Four (4) groups of six (6) mice each were implanted with either 50, 100, 1,000 or 10,000 T47D cancer stem cells. In each case the total volume injected into each mouse was 100 uL. Half of the mice in each group were injected daily with 200 uL of recombinant human NME7-AB in the flank near but not at the cancer stem cell implantation site.\nAnimals were monitored for food intake and body weight, which were normal and stable. Two (2) independent and blinded tumor measurements were taken once a week and recorded."}, "[3]": {"tested_on": "DU145 MUC1-positive prostate cancer cells", "assay": "RT-PCR of cancer stem cell markers in DU145 cells cultured with agent", "assay_type": "cell-based, human", "conditions": "after 9-10 passages; FIG. 11b", "experimental": "Example 3: Agents that are able to maintain stem cells in the naïve state transform cancer cells into cancer stem cells wherein only a small number of cells are required for engraftment. Cancer cells were cultured according to standard practice. In the controls, the cancer cells were cultured in their normal media: RPMI for T47D breast cancer cells, DU145 and PC3 prostate cancer cells. However, the test agents, recombinant proteins human NME1 dimers, bacterial HSP593 NME1 dimers, human NME7-AB and 2i, were added to a serum-free minimal media to eliminate potential interference from the many growth factors and cytokines in serum.\nTo this serum-free minimal media, rhNME1 (aka NM23) was added to a final concentration of 8 nM, or bacterial HSP593 recombinant NME1 was added to a final concentration of 8 nM, or rhNME7-AB was added to a final concentration of 4 nM, or 2i inhibitors, PD0325901 and CHIR99021, which inhibit the MAP kinase pathway and GSK3, respectively, were added to a final concentration of 3 μM and 1 μM.\nExample 3b: Prostate cancer cells were also cultured as described above with either human NME1 dimers, bacterial NME1 dimers, NME7-AB, or 2i inhibitors. […] Thus, the RT-PCR measurements of the cancer stem cell markers are lower than that of the T47D cells, which could be explained by it being the measure of transformed cells and non-transformed cells. In the case of breast cancer cells, we were able to isolate the fully transformed cancer stem cells by collecting the floating cells, but were not able to do so here. DU145 MUC1-positive prostate cancer cells were cultured in RPMI media as a control and in minimal media to which was added recombinant human NME1/NM23 dimers, bacterial HSP593 dimers, or human NME7-AB. […] There was about a 2-8-fold increase in OCT4, MUC1 and CDH1/E-cadherin. However, after serial passaging under these same culture conditions, the increases in expression of cancer stem cell markers became more pronounced. We reasoned that serial passaging allowed more time for cells to transform since we could not rapidly collect floating cells."}}, "data": [{"molecule": "NME7-AB: recombinant human NME7 variant (A and B domains, SEQ ID NO:39) secreted as a monomer; 'NME7' in the experiments means this protein (protein, Human NME7-AB, 'NME7' in the experiments means this protein) MEKTLALIKPDAISKAGEIIEIINKAGFTITKLKMMMLSRKEALDFHVDHQSRPFFNELIQFITTGPIIAMEILRDDAICEWKRLLGPANSGVARTDASESIRALFGTDGIRNAAHGPDSFASAAREMELFFPSSGGCGPANTAKFTNCTCCIVKPHAVSEGLLGKILMAIRDAGFEISAMQMFNMDRVNVEEFYEVYKGVVTEYHDMVTEMYSGPCVAMEIQQNNATKTFREFCGPADPEIARHLRPGTLRAIFGKTKIQNAVHCTDLPEDGLLEVQYFFKILDN", "values": [{"measurement": "expression of stem cell marker genes OCT4 and NANOG", "setting": "[1]; FIG. 15", "result": "greatly increased expression"}, {"measurement": "expression of BRD4, JMJD6, MBD3 and CHD4", "setting": "[1]; FIG. 16", "result": "decreased expression"}, {"measurement": "mice that developed tumors", "setting": "[2]; all 24 mice implanted with 50, 100, 1,000 or 10,000 NME7-induced cancer stem cells", "result": 67, "unit": "%"}, {"measurement": "number of implanted cells that initiate tumors in mice", "setting": "[2]; cancer stem cells generated by culture in NME7-AB", "result": "≤ 50", "unit": "cells"}, {"measurement": "time after which cancers metastasized", "setting": "[2]; group injected with NME7 daily", "result": "about 50 days"}, {"measurement": "mice that formed tumors", "setting": "[2]; implanted with NME7-induced cancer stem cells and receiving daily injections of NME7", "result": 83, "unit": "%"}, {"measurement": "mice that formed tumors", "setting": "[2]; implanted with NME7-induced cancer stem cells, no circulating NME7 (no daily injections)", "result": 50, "unit": "%"}, {"measurement": "tumor-bearing mice that developed cancer metastasis (multiple tumors)", "setting": "[2]; of the daily NME7-injected mice that formed tumors, by approximately Day 50", "result": 80, "unit": "%"}, {"measurement": "expression of NANOG and OCT4", "setting": "[3]", "result": "significant increases"}, {"measurement": "increase in the expression of CDH1/E-cadherin", "setting": "[3]", "result": 9, "unit": "fold"}]}]}
